Assay results reported in IntAct's records for PubMed 19487680.

Assays:
rar1_arath RAR1 = rar1_arath RAR1 (UniProt Q9SE33)
sgt1b_arath SGT1B = sgt1b_arath SGT1B (UniProt Q9SUT5)
Chain of sgt1b_arath SGT1B (Q9SUT5 whole entry): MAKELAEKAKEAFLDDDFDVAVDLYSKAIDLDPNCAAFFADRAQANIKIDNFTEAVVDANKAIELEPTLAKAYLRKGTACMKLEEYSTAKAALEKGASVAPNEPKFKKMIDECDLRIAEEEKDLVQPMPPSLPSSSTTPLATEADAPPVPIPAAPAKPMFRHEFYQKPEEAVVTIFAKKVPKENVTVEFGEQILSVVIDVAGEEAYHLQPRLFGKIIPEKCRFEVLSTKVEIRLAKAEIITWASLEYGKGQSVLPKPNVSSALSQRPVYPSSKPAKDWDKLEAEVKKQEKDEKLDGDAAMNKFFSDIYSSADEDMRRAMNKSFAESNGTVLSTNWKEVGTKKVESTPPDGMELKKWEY

Chain of rar1_arath RAR1 (Q9SE33 whole entry): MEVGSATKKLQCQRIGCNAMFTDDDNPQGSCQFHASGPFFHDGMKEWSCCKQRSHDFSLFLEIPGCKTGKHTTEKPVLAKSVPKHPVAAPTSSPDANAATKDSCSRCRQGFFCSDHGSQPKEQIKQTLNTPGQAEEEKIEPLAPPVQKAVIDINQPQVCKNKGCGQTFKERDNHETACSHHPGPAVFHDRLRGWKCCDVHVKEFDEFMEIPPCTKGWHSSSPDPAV
Chain of Heat shock protein 90-2 (Arabidopsis thaliana (Mouse-ear cress)), P55737 R337C (P55737 whole entry R337C): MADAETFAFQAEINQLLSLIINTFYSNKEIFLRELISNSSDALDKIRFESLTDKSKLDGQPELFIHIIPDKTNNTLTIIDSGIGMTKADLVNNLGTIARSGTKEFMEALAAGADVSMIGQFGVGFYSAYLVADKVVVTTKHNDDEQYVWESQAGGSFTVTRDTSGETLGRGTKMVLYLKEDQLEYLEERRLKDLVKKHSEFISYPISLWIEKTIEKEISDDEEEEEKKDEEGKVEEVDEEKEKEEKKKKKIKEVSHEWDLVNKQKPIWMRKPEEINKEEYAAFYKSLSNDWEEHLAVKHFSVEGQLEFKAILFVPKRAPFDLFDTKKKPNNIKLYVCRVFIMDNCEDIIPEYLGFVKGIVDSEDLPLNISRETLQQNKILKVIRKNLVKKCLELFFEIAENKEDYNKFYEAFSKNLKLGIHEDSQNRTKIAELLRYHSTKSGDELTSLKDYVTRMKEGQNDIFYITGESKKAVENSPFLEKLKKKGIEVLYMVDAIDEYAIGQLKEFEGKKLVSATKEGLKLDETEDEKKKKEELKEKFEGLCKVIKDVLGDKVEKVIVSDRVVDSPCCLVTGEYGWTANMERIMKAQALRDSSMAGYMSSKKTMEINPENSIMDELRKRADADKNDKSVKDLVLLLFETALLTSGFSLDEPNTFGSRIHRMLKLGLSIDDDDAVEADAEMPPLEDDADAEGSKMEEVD
Chain of Heat shock protein 90-2 (Arabidopsis thaliana (Mouse-ear cress)), P55737 A42T (P55737 whole entry A42T): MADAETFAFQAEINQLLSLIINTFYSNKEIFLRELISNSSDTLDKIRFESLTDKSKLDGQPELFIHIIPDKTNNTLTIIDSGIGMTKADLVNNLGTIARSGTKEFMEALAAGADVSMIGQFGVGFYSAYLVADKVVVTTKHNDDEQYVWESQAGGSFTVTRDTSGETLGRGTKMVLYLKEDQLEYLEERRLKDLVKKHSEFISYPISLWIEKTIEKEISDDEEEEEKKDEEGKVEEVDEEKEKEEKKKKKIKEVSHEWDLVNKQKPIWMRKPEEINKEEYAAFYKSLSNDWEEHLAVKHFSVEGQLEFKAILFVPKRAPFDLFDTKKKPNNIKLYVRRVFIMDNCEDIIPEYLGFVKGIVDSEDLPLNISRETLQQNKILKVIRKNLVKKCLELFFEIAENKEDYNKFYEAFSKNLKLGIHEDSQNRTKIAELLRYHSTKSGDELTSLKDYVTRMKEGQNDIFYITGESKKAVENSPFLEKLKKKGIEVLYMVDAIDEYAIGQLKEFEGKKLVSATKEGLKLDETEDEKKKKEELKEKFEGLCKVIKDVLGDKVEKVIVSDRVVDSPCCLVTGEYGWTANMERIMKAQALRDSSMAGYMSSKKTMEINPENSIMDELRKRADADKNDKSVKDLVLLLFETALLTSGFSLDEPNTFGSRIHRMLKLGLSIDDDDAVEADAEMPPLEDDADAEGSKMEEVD
Chain of Heat shock protein 90-2 (Arabidopsis thaliana (Mouse-ear cress)), P55737 D80N (P55737 whole entry D80N): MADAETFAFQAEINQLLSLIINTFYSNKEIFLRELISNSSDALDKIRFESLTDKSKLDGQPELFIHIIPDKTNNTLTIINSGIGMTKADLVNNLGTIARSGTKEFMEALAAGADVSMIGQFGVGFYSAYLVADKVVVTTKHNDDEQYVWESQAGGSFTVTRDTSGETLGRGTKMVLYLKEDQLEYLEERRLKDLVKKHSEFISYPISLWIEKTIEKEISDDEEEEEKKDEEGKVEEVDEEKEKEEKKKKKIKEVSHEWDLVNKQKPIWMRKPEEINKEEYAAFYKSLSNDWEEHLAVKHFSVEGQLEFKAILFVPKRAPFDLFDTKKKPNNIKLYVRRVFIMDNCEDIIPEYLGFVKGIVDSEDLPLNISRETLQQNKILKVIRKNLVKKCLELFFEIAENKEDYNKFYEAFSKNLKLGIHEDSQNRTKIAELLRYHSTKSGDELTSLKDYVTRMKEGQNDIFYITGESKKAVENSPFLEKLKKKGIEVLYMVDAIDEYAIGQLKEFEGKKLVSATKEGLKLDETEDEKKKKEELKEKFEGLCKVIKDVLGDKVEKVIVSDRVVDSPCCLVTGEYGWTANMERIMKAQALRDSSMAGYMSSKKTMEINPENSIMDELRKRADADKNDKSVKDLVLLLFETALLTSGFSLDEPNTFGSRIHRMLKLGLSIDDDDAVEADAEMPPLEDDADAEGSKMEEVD
Chain of Heat shock protein 90-2 (Arabidopsis thaliana (Mouse-ear cress)), P55737 G95E (P55737 whole entry G95E): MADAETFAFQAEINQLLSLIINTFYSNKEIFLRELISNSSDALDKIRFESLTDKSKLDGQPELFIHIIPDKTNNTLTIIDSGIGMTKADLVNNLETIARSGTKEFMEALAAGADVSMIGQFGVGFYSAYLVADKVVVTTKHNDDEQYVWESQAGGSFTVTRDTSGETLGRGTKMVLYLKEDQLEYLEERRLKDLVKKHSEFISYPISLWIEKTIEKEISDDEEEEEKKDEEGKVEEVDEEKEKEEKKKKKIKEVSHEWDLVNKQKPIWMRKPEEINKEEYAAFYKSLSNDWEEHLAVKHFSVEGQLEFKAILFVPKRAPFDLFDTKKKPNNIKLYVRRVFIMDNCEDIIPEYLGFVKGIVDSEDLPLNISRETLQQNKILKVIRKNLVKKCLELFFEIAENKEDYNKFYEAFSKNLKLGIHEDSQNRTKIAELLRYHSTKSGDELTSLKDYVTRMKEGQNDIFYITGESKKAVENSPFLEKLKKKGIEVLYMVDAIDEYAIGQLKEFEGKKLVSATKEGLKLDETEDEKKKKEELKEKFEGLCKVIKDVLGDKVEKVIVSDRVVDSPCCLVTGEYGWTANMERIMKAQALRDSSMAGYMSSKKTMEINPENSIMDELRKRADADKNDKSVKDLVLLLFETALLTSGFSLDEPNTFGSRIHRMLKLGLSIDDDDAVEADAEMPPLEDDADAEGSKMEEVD
Chain of Heat shock protein 90-2 (Arabidopsis thaliana (Mouse-ear cress)), P55737 S100F (P55737 whole entry S100F): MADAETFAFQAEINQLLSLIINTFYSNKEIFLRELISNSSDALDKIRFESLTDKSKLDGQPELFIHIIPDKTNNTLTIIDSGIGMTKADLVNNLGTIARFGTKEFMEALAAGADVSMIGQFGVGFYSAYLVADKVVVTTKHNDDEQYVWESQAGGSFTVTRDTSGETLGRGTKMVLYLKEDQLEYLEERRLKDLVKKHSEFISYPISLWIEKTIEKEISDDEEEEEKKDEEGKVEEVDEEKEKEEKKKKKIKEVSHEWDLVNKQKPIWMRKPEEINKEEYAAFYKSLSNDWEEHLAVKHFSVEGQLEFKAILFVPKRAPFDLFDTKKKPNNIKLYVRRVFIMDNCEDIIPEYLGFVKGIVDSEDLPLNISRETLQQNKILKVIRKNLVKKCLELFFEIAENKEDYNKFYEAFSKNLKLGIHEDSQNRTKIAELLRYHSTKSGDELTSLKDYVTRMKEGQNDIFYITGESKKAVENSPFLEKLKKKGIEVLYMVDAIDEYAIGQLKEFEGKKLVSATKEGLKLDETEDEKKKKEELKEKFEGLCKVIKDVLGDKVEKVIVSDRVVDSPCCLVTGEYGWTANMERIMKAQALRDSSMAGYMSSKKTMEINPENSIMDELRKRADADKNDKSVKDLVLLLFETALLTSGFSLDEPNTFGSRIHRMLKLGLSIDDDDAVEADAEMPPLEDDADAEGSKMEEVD

| Substance | effect of a mutation on the interaction (rar1_arath RAR1) | effect of a mutation on the interaction (sgt1b_arath SGT1B) |
| --- | --- | --- |
| Heat shock protein 90-2 (Arabidopsis thaliana (Mouse-ear cress)), P55737 A42T | disrupting interaction strength | disrupting interaction strength |
| Heat shock protein 90-2 (Arabidopsis thaliana (Mouse-ear cress)), P55737 D80N | disrupting interaction strength | disrupting interaction strength |
| Heat shock protein 90-2 (Arabidopsis thaliana (Mouse-ear cress)), P55737 R337C | disrupting interaction strength | decreasing interaction strength |

More lines, now with the values ahead:

| effect of a mutation on the interaction (rar1_arath RAR1) | effect of a mutation on the interaction (sgt1b_arath SGT1B) | Substance |
| --- | --- | --- |
| decreasing interaction strength | disrupting interaction strength | Heat shock protein 90-2 (Arabidopsis thaliana (Mouse-ear cress)), P55737 G95E |
| – | disrupting interaction strength | Heat shock protein 90-2 (Arabidopsis thaliana (Mouse-ear cress)), P55737 S100F |
